Patent publication US20110269938A1 (COMMONWEALTH SCIENTIFIC AND INDUSTRIAL RESEARCH ORGANISATION, published 2011)

How the values were obtained:
[1] = molecular target: the molecule itself; test: self-association of familial mutation variants
[2] = molecular target: the molecule itself; test: Western blot of periplasmic fraction, self-association
[3] = molecular target: the molecule itself; test: Western blot of periplasmic fraction (self-association)

Protein	binding result [1]	further results
Aβ-IgNAR 37R-1 (ΔGlu22) (VNAR, also called familial mutant ΔGlu22) VNAR: AWVDQTPRTATKETGESLTINCVLRDASFELKDTGWYRTKLGSTNEQSISIGGRYVETVNKGSKSFSLRISDLRVEDSGTYKCQAFYVFFADVGSNKGAIIGLMVGGVVIGGEKGAGTALTVKA	binds	
Aβ-IgNAR 37F-2 (Asp23Asn) (VNAR, also called familial mutant Asp23Asn) VNAR: AWVDQTPRTATKETGESLTINCVLRDASFELKDTGWYRTKLGSTNEQSISIGGRYVETVNKGSKSFSLRISDLRVEDSGTYKCQAFYVFFAENVGSNKGAIIGLMVGGVVIGGEKGAGTALTVKA	binds	
Aβ-IgNAR 37K-1 (Glu22Gln) (VNAR, also called familial mutant Glu22Gln) VNAR: AWVDQTPRTATKETGESLTINCVLRDASFELKDTGWYRTKLGSTNEQSISIGGRYVETVNKGSKSFSLRISDLRVEDSGTYKCQAFYVFFAQDVGSNKGAIIGLMVGGVVIGGEKGAGTALTVKA	binds	
Aβ-IgNAR 37L-2 (Ala21Gly) (VNAR, also called familial mutant Ala21Gly) VNAR: AWVDQTPRTATKETGESLTINCVLRDASFELKDTGWYRTKLGSTNEQSISIGGRYVETVNKGSKSFSLRISDLRVEDSGTYKCQAFYVFFGEDVGSNKGAIIGLMVGGVVIGGEKGAGTALTVKA	binds	
Aβ-IgNAR-G3 (VNAR, No crystals obtained; also called 37A-1; glycine-3 version) VNAR: AWVDQTPRTATKETGESLTINCVLRDASFELKDTGWYRTKLGSTNEQSISIGGRYVETVNKGSKSFSLRISDLRVEDSGTYKCQAFYGLVFFAEDVGSNKGAIIGLMVGGVVIAGGGEKGAGTALTVKA		binding result [2]: binds
Aβ-IgNAR-G6 (VNAR, No crystals obtained; also called 37Q-6; glycine-6 version) VNAR: AWVDQTPRTATKETGESLTINCVLRDASFELKDTGWYRTKLGSTNEQSISIGGRYVETVNKGSKSFSLRISDLRVEDSGTYKCQAFYGGGLVFFAEDVGSNKGAIIGLMVGGVVIAGGGGEKGAGTALTVKA		binding result [2]: binds
IgNAR single variable domain antibody 12Y-2 (VNAR, Scaffold without Aβ insert, used as the monomeric control; also called IgNAR wt; wild type IgNAR) VNAR: AWVDQTPRTATKETGESLTINCVLRDASFELKDTGWYRTKLGSTNEQSISIGGRYVETVNKGSKSFSLRISDLRVEDSGTYKCQAFYSLPLGDYNYSLLFRGEKGAGTALTVKA		binding result [3]: no binding
